Assays:
[1] = molecular target: Unhydroxylated collagen purified from strain PP434 (vector MMV411)
[2] = molecular target: (Pro-Pro-Gly)10 peptide model substrate

B1: P4HA and P4HB with the His tag, expressed separately (bidirectional), encoded by plasmid MMV503 (protein)
chain 1: HPGFFTSIGQMTDLIHTEKDLVTSLKDYIKAEEDKLEQIKKWAEKLDRLTSTATKDPEGFVGHPVNAFKLMKRLNTEWSELENLVLKDMSDGFISNLTIQRQYFPNDEDQVGAAKALLRLQDTYNLDTDTISKGDLPGVKHKSFLTVEDCFELGKVAYTEADYYHTELWMEQALRQLDEGEVSTVDKVSVLDYLSYAVYQQGDLDKALLLTKKLLELDPEHQRANGNLKYFEYIMAKEKDANKSSSDDQSDQKTTLKKKGAAVDYLPERQKYEMLCRGEGIKMTPRRQKKLFCRYHDGNRNPKFILAPAKQEDEWDKPRIIRFHDIISDAEIEVVKDLAKPRLRRATISNPITGDLETVHYRISKSAWLSGYENPVVSRINMRIQDLTGLDVSTAEELQVANYGVGGQYEPHFDFARKDEPDAFKELGTGNRIATWLFYMSDVLAGGATVFPEVGASVWPKKGTAVFWYNLFASGEGDYSTRHAACPVLVGNKWVSNKWLHERGQEFRRPCTLSELE
chain 2: APDEEDHVLVLHKGNFDEALAAHKYLLVEFYAPWCGHCKALAPEYAKAAGKLKAEGSEIRLAKVDATEESDLAQQYGVRGYPTIKFFKNGDTASPKEYTAGREADDIVNWLKKRTGPAASTLSDGAAAEALVESSEVAVIGFFKDMESDSAKQFFLAAEVIDDIPFGITSNSDVFSKYQLDKDGVVLFKKFDEGRNNFEGEVTKEKLLDFIKHNQLPLVIEFTEQTAPKIFGGEIKTHILLFLPKSVSDYEGKLSNFKKAAESFKGKILFIFIDSDHTDNQRILEFFGLKKEECPAVRLITLEEEMTKYKPESDELTAEKITEFCHRFLEGKIKPHLMSQELPDDWDKQPVKVLVGKNFEEVAFDEKKNVFVEFYAPWCGHCKQLAPIWDKLGETYKDHENIVIAKMDSTANEVEAVKVHSFPTLKFFPASADRTVIDYNGERTLDGFKKFLESGGQDGAGDDDDLEDLEEAEEPDLEEDDDQKAVKDELHHHHHH
- % Hydroxyproline (in vitro hydroxylation, 32 C, 1 hour); enzyme from strain PP636 [1]: 0.9%
- alpha-ketoglutaric acid consumption over time [2]: The P4HA and P4HB enzymatic activity from PP548 were confirmed by the same assay as above
